According to the supplement of paper PMC9112550, “Optimization of the antimicrobial peptide Bac7 by deep mutational scanning” (BMC Biology, 2022):

system: Escherichia coli TOP10; assay: shrunken log2 fold change of peptide-encoding DNA abundance (4.5 h post-induction vs induction); higher = less antimicrobial activity (less host growth inhibition); conditions: time post-induction: 4.5 h; library: site-saturation at positions 5, 18, 19, 20
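Further: peptides expressed intracellularly from a pBAD plasmid library in pooled LB shake-flask culture, induced with 0.3% L-arabinose, DNA abundance read by NGS, three biological replicates, DESeq2 with apeglm shrinkage.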

Sequence	shrunken log2 fold change
RRIRDRPPRLPRPRPRPQLGPRP	0.0197
RRIRCRPPRLPRPRPRPVNSPRP	-0.418
RRIRGRPPRLPRPRPRPFYPPRP	-0.62
RRIRCRPPRLPRPRPRPALFPRP	0.344
RRIRQRPPRLPRPRPRPGAYPRP	-0.506
RRIRYRPPRLPRPRPRPPPCPRP	0.574
RRIRKRPPRLPRPRPRPISKPRP	-0.357
RRIRVRPPRLPRPRPRPGPYPRP	-0.0621
RRIRTRPPRLPRPRPRPGPHPRP	0.124
RRIRGRPPRLPRPRPRPTRWPRP	0.739
RRIRIRPPRLPRPRPRPNVPPRP	0.0631
RRIRMRPPRLPRPRPRPLSGPRP	0.815
RRIRWRPPRLPRPRPRPNPQPRP	-0.0303
RRIRHRPPRLPRPRPRPSHWPRP	-0.288
RRIRRRPPRLPRPRPRPIPQPRP	0.336
RRIRWRPPRLPRPRPRPAEAPRP	0.0865
RRIRNRPPRLPRPRPRPLVVPRP	-0.117
RRIRFRPPRLPRPRPRPGHRPRP	0.0983
RRIRYRPPRLPRPRPRPRCSPRP	-0.173
RRIRTRPPRLPRPRPRPDDFPRP	0.0516
RRIRQRPPRLPRPRPRPADDPRP	-0.01
RRIRRRPPRLPRPRPRPCYEPRP	0.107
RRIRPRPPRLPRPRPRPVLHPRP	-0.1
RRIRDRPPRLPRPRPRPPPKPRP	1.09
RRIRPRPPRLPRPRPRPDQFPRP	-0.0233

Sequence	shrunken log2 fold change
RRIRLRPPRLPRPRPRPPRKPRP	0.659
RRIRGRPPRLPRPRPRPNSIPRP	0.00326
RRIRRRPPRLPRPRPRPKCNPRP	-0.0456
RRIRNRPPRLPRPRPRPQDTPRP	-0.0984
RRIRMRPPRLPRPRPRPYYWPRP	-0.123
RRIRIRPPRLPRPRPRPIKWPRP	-0.118
RRIRSRPPRLPRPRPRPPDEPRP	0.813
RRIRWRPPRLPRPRPRPRCVPRP	0.117
RRIRARPPRLPRPRPRPHIIPRP	-0.0334
RRIRVRPPRLPRPRPRPITCPRP	-0.324
RRIRWRPPRLPRPRPRPCWKPRP	-0.00256
RRIRIRPPRLPRPRPRPASEPRP	0.149
RRIRRRPPRLPRPRPRPREPPRP	1.04
RRIRKRPPRLPRPRPRPDAPPRP	1.46
RRIRPRPPRLPRPRPRPFMSPRP	-0.384
RRIRSRPPRLPRPRPRPRFKPRP	0.0925
RRIRYRPPRLPRPRPRPEKRPRP	0.00709
RRIRNRPPRLPRPRPRPFYCPRP	-0.937
RRIRMRPPRLPRPRPRPSIAPRP	-0.0688
RRIRWRPPRLPRPRPRPIWMPRP	-0.000467
RRIRGRPPRLPRPRPRPPPQPRP	1.55
RRIRSRPPRLPRPRPRPNNVPRP	-0.592
RRIRGRPPRLPRPRPRPSYQPRP	-0.0215
RRIRYRPPRLPRPRPRPVPYPRP	-0.0727
RRIRKRPPRLPRPRPRPISIPRP	0.0294

Sequence	shrunken log2 fold change
RRIRGRPPRLPRPRPRPWTLPRP	0.161
RRIRLRPPRLPRPRPRPRAMPRP	0.373
RRIRVRPPRLPRPRPRPWHNPRP	-0.49
RRIRLRPPRLPRPRPRPFKAPRP	0.181
RRIRARPPRLPRPRPRPQINPRP	-0.0458
RRIRNRPPRLPRPRPRPEQFPRP	-0.0122
RRIRQRPPRLPRPRPRPPVHPRP	0.164
RRIRMRPPRLPRPRPRPLAWPRP	0.219
RRIRYRPPRLPRPRPRPDVSPRP	-0.248
RRIRIRPPRLPRPRPRPICYPRP	-0.325
RRIRLRPPRLPRPRPRPSTKPRP	-0.0833
RRIRNRPPRLPRPRPRPISTPRP	-0.507
RRIRARPPRLPRPRPRPTCGPRP	0.512
RRIRNRPPRLPRPRPRPLMPPRP	-0.173
RRIRYRPPRLPRPRPRPIFWPRP	0.0187
RRIRKRPPRLPRPRPRPVGHPRP	0.224
RRIRDRPPRLPRPRPRPFCPPRP	-0.277
RRIRFRPPRLPRPRPRPIIFPRP	-0.621
RRIRYRPPRLPRPRPRPQAGPRP	0.00284
RRIRKRPPRLPRPRPRPHQHPRP	0.213
RRIRTRPPRLPRPRPRPNINPRP	-0.812
RRIRGRPPRLPRPRPRPEYLPRP	0.468
RRIRSRPPRLPRPRPRPQELPRP	-0.107
RRIRRRPPRLPRPRPRPDQWPRP	0.224
RRIRNRPPRLPRPRPRPCFSPRP	-0.378
